Results published in the supplement of paper PMC9170038.

Tested on: K4 kissing-loop RNA reporter
Test: apparent KD of K4 kissing-loop reporter; higher = weaker reporter binding
Conditions: Eterna round: R107
Procedure: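 RNA-MaP round R107: designed RNA switches with theophylline, tryptophan, arginine or FMN aptamers are transcribed on-chip within common flanks. They are titrated with a labelled K4 kissing-loop RNA reporter in RNA-MaP buffer (100 mM Tris pH 7.5, 80 mM KCl, 4 mM MgCl2), without ligand or with the indicated ligand. Median apparent KD per design.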

[1] = input ligand: theophylline 20 uM
[2] = input ligand: tryptophan 2.4 mM
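Note: bound reporter read as fluorescence of individual clusters on recovered sequencing chips by microscopy, with normalized cluster intensities fitted with a binding model.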

Sequence	apparent KD of K4 kissing-loop reporter (input ligand: FMN 200 uM) [nM]	apparent KD of K4 kissing-loop reporter (input ligand: arginine 13.2 mM) [nM]	apparent KD of K4 kissing-loop reporter (input ligand: none) [nM]	apparent KD of K4 kissing-loop reporter [1] [nM]	apparent KD of K4 kissing-loop reporter [2] [nM]
CUCGACACGGGAAGGAGCGGUUGCGUGUGCCAGUGAUGUUGGAUCAGCAGACUGCCCGGUAGCCAGGUAGGUCGCCUGUGCUGAG [Esbeescexe]	219	166	162	189	142
CUCGAGUGAUGUUCGUUUAUUUAUACAGAUACCAGUGAAUUUUAACACCCUUGGCAGCUGGUUGUAUCUUUGUUUUUUACACAAG [JR_Nu_ExcTheophyA_Sub024]	191	297	211	338	154
CUUACCCAUCGGAUGGAUCAACUGCACACGAAGGAUAUACACACGGGUAGAAGGUCGGGAUUCCAGUGAUGUUGGAUGGUACGAC [theeternabot_exclusion_KL_FMN_A_29]	87.2	96.5	91.3	98.7	74.2
CUUCGUAAAGGCCCAGUGAUGUUGGGCACUCGAGGACCGGUACGGCCGCCACUCGCUCCCUAAGUCGCGCGCGUGGGCCACCGCC [Xeteoredre]	111	110	99.4	104	113
CUUGAUCGAGGAAGGAGCGGGCCGUCAUUGAGCGCAGUGAUGUUGCGGUCGACUAGUCGAGCCCAGGUAGGUCGCCUGGAGUAAG [Xeveis]	202	159	173	160	192
CUUGUACAAGUGAUGUUUGUUAUAUCCGAAGGAGCGUCGUACUAGACAGGUAGGUCGCGGAUGAAGAUAGUUUUUUUAAUAUCAU [JR_Nu_SSArginiA_Sub028]	687	474	761	648	533
CUUUGAACAUGAGUGAUGUUCAUGUCCGAAGGAGCGUGCGAAAGCACAGGUAGGUCGCGGACGUGAGUGAUGUUCAUGUGAGCGA [KL-XArg-A11 #analogue]	196	134	161	167	154
GAAAGAAAGAAUGAUACCAGACACCCGAGUGAUGUUCGGAGCAGAGUGAUGUUCUUAUAAGUCCCUUGGCAGCAUAAAAGAAAAG [whbob_SS_Theo_B_sa82]	192	171	196	186	153
GAAGGAGACAACAUCACUACUCCUUCAGACUAGGAUAUCAGGAAACUGAGAAGGAGUCUACUUGCAGUGAUGUUGCAAGAAUAAU [[F]''-[K]'-[F]'-[F1]-[F2]-[K1]-[K2]_Design2]	167	123	146	148	118
GAAGGUCAAAGACCUUCGUGCACAACUGAUACCAGUCGCGAAAGCGACCCUUGGCAGCAGGGCAGUGAUGUUGCCAGUGCACAAA [Omei KL Theo A SS A v3]	157	166	167	124	169
GACGGGCAGUGAUGUUGCCGGUCUCUUGGACGAGGACCGGUACGGCCGCCACUCGAUCUGAUGCGGGAAUUGCAUCUUUUAAUAA [Raorbirabe]	237	115	185	194	333
GAUAUAGAGGCGGCCGCCACUAGUGAUGUUAGUGAUGUUAGAUAGAGAAUAGAACAGAGGUGGGAUAGGACCGGGCCAGAUAGAG [whbob_SS_Tryp_B_w34]	90.6	72.7	67.9	65.8	76
GAUUAUUAUUCUAAAUAACAUUAUUCAGAAGGAGCGUGUUUGUACACAGGUAGGUCGCUGAAUGCUAAGCCAGUGAUGUUGGUAA [JR_SSArginiA_Sub001]	154	206	203	191	128
GAUUGAGGAAACUCGAUCUUAUAUCCUAGGCAGGAUAUGCGGAAACGCAGAAGGGCCACCUAGCAGUGAUGUUGCAAGCGAAAGC [Ex FMN A 5]	203	425	379	471	207
GCAAAACAAACGUAGAGUGGAACACAGAGACGAGGACCGGUACGGCCGCCACUCGACGAGGUUUUCAGUGAUGUUGAAAAUUUAG [Exclusion Tryptophan A GF2]	133	162	125	151	199
GCAAAACGCAGUGAUGUUGCGAUAUCGGAAGGAGCGCGUGAAAACGCAGGUAGGUCGCCGAUUCAGUGAGUAUCUCGCUGUUUGC [Arginine A K4 18]	258	283	293	259	232
GCAGCACCGAGUGAUGUUUGGUUCAGCGUGAAGGAUAUAAUAUCUGUUAGAAGGUCAAGUGAGAUUGUCGCGAAUCAGUUUUGAU [theeternabot_exclusion_KL_FMN_A_41]	368	248	309	332	290
GCAGUGAUGUUGCACGAGUAGGGUAGAGUACGAGGACCGGUACGGCCGCCACUCGUACGGAACUCGCUAAUUUAUGGAAUGGUGA [I]	465	590	752	761	497
GCAGUGAUGUUGCGCAGGUACAGUGGAGUGCGAGGACCGGUACGGCCGCCACUCGUACAGAACUAGCUAAUAUAUGGAUAGGUGA [VIII]	287	358	315	347	280
GCAGUGAUGUUGCGCGGGUACGGUGGAGUGCGAGGACCGGUACGGCCGCCACUCGUACGGAACUGGCUAAUAUAUGGAUAGGUGA [VI]	397	291	383	379	336
GCAGUGAUGUUGCGGAUGUACAGUGGAGUGCGAGGACCGGUACGGCCGCCACUCGUACAGAACAAGCUAAUACAUCGAUAGGUGA [XI]	323	358	461	409	339
GCAUAGCAGACGUUGAGUGGGAGCCAGGCACGAGGACCGGUACGGCCGCCACUCGACUAGGUUUUCAGUGAUGUUGAAAAUUUAG [Exclusion Tryptophan A GF4]	151	141	142	140	156
